Laboratory results taken from article PMC11237882 (2024).

T1: Homer1 EVH1 (Homo sapiens, UniProt Q86YM7)
T1 chain: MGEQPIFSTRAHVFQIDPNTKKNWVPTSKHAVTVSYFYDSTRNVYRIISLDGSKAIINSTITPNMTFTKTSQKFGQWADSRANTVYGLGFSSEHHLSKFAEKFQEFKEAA


Key:
Homer1 EVH1 = molecular target: T1, Homer1 EVH1; assay: BLI
ENAH EVH1 = ENAH EVH1 (Homo sapiens, UniProt Q8N8S7); assay: BLI
ENAH EVH1, sequence (Q8N8S7 1-111): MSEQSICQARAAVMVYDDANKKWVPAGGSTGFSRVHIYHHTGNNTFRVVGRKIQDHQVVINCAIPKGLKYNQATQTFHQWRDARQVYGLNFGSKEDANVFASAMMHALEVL

Row | Kd (Homer1 EVH1) [µM] | Kd (ENAH EVH1) [µM] | Binder
1 | > 150 |  | ALPHPGAAPWPMAFPYQYPPPAHPYNPHPGFPELGY [DVL3P1A]
2 |  | > 150 | PNHLPLPGPPFSFQNVLVVL [KANK4]
3 |  | > 150 | GYPYQYPGPPPCFPPAYQDP [DVL1]
4 |  | > 150 | RPATGYPLPPQIFNESQYRG [SH3BGRL]
5 |  | > 150 | FIAHILPAPPDCFPDKVKAF [FLNC]
